Series [1] has as its target T1, soybean ATP sulfurylase isoform 1 (GmATPS1) (Glycine max, UniProt Q8SAG1).
T1 construct: homodimer
T1 sequence (Q8SAG1 49-462): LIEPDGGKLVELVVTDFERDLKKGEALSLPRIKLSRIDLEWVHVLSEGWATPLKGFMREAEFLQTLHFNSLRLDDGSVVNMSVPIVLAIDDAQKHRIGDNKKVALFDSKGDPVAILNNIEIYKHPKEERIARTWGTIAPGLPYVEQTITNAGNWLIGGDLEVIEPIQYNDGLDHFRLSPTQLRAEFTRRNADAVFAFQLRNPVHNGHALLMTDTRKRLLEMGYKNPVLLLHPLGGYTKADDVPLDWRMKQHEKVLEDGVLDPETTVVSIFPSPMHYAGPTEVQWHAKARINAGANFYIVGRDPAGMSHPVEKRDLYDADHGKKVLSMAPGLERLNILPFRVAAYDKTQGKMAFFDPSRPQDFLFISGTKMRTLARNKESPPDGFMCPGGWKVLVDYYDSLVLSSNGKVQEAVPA
In words: dead-end inhibition kinetics, coupled spectrophotometric assay of APS synthesis. The format is biochemical.

Substrate in series [2]: Nc1ncnc2c1ncn2[C@@H]1O[C@H](COP(=O)(O)OP(=O)(O)OP(=O)(O)O)[C@@H](O)[C@H]1O
Nature of the series: purified protein. The settings on record: Mg2+ binds first in the forward reaction.

Substrate in series [3]: O=S(=O)(O)O
Nature of the series: purified protein. The settings on record: ATP, Mg2+ binds after ATP; chlorate competes with it.

Experimental findings from article PMC3728988, “Kinetic mechanism of the dimeric ATP sulfurylase from plants” (Bioscience Reports, 2013) are described below.

`[O-][Cl+2]([O-])O` [chlorate]: affinity in series [1] was put at a Ki of 103 ± 19 µM.

B1: soybean ATP sulfurylase isoform 1 (GmATPS1) (Glycine max) (protein)
chain: T1 sequence (Q8SAG1 49-462)
Regarding B1, the Km in “purified protein [2]” was 221 ± 41 µM; in the series “purified protein [3]” it was 1,030±280 μM.
